In patent US20030147885A1 (IDEC PHARMACEUTICALS, published 2003):
Values belong to the molecule of their own block, whether it stands above or below them.

How the values were obtained:
[1] = biological target: human B lymphocyte-restricted differentiation antigen Bp35 (CD20) (human) (UniProt P11836); assay: direct binding of I-125 radiolabeled antibody to CD20 positive B cells, Scatchard plot; printed as apparent affinity constant (Kap)
[2] = biological target: human B lymphocyte-restricted differentiation antigen Bp35 (CD20) (human) (UniProt P11836); assay: radioimmunoassay: hybridoma medium against 10 ng I-125 labeled anti-CD20 Bl on 100,000 SB cells
[3] = biological target: T1, human B lymphocyte-restricted differentiation antigen Bp35 (CD20) (human, UniProt P11836 1-297); assay: direct binding of I-125 radiolabeled antibody to CD20 positive B cells, Scatchard plot; printed as apparent affinity constant (Kap)
T1 construct: whole, on cells; Presented on SB cells, other CD20 positive B cell lines or acetone-fixed human tissues; also called CD20 antigen; CD20 surface antigen
T1 sequence (looked up): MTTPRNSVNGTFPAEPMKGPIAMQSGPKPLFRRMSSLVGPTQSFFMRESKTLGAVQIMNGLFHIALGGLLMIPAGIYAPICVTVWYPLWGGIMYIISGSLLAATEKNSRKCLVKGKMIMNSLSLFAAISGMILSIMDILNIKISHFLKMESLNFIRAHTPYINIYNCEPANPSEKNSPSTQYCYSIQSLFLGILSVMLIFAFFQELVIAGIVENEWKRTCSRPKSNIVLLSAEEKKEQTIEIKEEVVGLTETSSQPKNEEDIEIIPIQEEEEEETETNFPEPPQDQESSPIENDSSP

Kd [1]: 3.5 nM
% inhibition of I-125 labeled anti-CD20 Bl binding [2]: 50%
Molecule: murine anti-CD20 monoclonal antibody 2B8

Kd [3]: 5.2 nM
B1: chimeric anti-CD20 antibody produced by the CHO transfectoma (antibody, V domains shown)
VH: QVQLQQPGAELVKPGASVKMSCKASGYTFTSYNMHWVKQTPGRGLEWIGAIYPGNGDTSYNQKFKGKATLTADKSSSTAYMQLSSLTSEDSAVYYCARSTYYGGDWYFNVWGAGTTVTVSA
VL: QIVLSQSPAILSASPGEKVTMTCRASSSVSYIHWFQQKPGSSPKPWIYATSNLASGVPVRFSGSGSGTSYSLTISRVEAEDAATYYCQQWTSNPPTFGGGTKLEIK
notes: domain: heavy chain gamma 1 constant region (Kabat numbering amino acids 114-478); also called C2B8; CHO produced chimeric anti-CD20; not shown: human immunoglobulin light chain kappa constant region, Kabat numbering amino acids 108-214, allotype Km 3

Kd [3]: 7.4 nM
B2: chimeric anti-CD20 antibody produced by the SP2/0 transfectoma (antibody, V domains shown)
VH: B1 VH
VL: B1 VL
notes: domain: heavy chain gamma 1 constant region (Kabat numbering amino acids 114-478); Same construct as m2, but produced in SP2/0 mouse myeloma cells; also called SP2/0 produced antibody; not shown: human immunoglobulin light chain kappa constant region, Kabat numbering amino acids 108-214, allotype Km 3
